Literature values as cited in publication PMC4715488.

Molecular target: GPP130 (Homo sapiens) (UniProt O00461)
Chain of UniProt O00461 (O00461 2-696): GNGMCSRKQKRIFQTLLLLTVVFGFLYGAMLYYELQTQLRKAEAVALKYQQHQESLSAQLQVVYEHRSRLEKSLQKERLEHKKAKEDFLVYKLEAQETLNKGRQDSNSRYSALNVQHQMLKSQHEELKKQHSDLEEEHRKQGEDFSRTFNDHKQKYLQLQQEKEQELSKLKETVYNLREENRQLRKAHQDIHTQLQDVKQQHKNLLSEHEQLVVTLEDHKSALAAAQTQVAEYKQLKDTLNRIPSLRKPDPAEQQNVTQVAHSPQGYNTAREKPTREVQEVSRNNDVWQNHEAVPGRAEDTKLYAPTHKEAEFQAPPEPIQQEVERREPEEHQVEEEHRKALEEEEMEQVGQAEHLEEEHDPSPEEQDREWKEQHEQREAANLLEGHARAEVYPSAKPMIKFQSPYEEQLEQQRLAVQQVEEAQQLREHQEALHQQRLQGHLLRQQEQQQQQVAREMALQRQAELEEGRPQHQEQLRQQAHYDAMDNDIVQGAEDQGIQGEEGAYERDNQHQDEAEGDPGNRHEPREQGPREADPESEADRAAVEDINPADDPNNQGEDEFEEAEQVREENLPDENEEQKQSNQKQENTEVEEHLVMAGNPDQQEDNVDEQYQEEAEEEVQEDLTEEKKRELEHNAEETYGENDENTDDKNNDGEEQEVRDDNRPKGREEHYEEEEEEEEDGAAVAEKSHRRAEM

## Shiga toxin 1 B subunit (STx1B) (from UniProt Q32GM0)
  Kd: 150 nM
